Data reported in patent US20160074469A1.

Target: human MC1r (melanocortin receptor type 1) (human) (UniProt Q01726)
Assay: cell-based or functional assay

UniProt Q01726, sequence (Q01726 whole entry): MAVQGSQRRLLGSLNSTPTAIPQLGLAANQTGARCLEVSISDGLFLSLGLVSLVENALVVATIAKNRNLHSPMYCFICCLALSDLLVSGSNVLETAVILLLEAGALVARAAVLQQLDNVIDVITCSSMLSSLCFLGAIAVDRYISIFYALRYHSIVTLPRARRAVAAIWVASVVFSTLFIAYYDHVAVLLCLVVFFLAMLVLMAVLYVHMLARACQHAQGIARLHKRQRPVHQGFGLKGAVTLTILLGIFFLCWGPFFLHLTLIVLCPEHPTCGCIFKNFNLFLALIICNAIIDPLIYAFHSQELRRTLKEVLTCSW

B1: Ac(Lys)6-αMSH (Ac(Lys)6-Ser-Tyr-Ser-Met-Glu-His-Phe-Arg-Trp-Gly-Lys-Pro-Val-NH2) (peptide)
peptide: Ac-KKKKKKSYSMEHFRWGKPV-NH2
  EC50, cAMP production: 2.12 nM
  Emax (max efficacy expressed as percent of αMSH), cAMP production: 72 % of αMSH
